Source: patent publication US20190177426A1 (BRIGHAM AND WOMEN S HOSPITAL, published 2019)

Key:
[1] = target: T1, human fibulin-3 (human, UniProt Q12805 18-493, limits assumed); assay: BIACORE, antibody immobilised on the chip, purified human fibulin-3 pretreated with 10 mM DTT as analyte (200-600 nM), 1:1 model; first of two runs (upper panel)
T1 construct: Purified human fibulin-3 in Western blot, dot blot and BIACORE (there pretreated with 10 mM DTT to dissociate multimers); The same entry is used for fibulin-3 secreted by transfected CNS1 cells and for native fibulin-3 in human tissue sections; also called Fib3; EFEMP1 gene product
T1 sequence (looked up): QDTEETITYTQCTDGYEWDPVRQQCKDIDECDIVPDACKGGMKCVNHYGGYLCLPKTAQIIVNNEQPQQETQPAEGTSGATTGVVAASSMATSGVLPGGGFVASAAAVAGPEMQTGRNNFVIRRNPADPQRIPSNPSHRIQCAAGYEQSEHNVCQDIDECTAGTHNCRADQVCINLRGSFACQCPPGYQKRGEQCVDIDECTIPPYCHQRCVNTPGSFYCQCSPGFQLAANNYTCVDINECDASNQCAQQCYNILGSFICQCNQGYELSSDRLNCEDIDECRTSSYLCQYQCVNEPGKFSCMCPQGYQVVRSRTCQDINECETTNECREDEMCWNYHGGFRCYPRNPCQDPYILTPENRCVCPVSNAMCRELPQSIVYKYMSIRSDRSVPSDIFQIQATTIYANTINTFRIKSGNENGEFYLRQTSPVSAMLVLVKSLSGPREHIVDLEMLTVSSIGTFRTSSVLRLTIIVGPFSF
Method: (§1) Experiments were performed in duplicate and fit to a 1:1 binding interaction model.

[2] = target: T1, human fibulin-3; assay: method not stated there (summary of the tests)
Method: as §1

[3] = target: T1, human fibulin-3; assay: SPR (BIACORE), antibody immobilized on the chip, purified human fibulin-3 pretreated with 10 mM DTT, duplicate, 1:1 model
Method: as §1

[4] = target: T1, human fibulin-3; assay: BIACORE, antibody immobilised on the chip, purified human fibulin-3 pretreated with 10 mM DTT as analyte (200-600 nM), 1:1 model; second of two runs (lower panel)
Method: as §1

B1: mAb428.2.3C11.H11.G3 (antibody, IgG1, V domains shown)
VH: QIQLVQSGPELKKPGETVKISCKASGYSFTTYGMSWVKQAPGKGLKWMGWINTYSGVPTYADDFKGRFAFFLETSASTAYLQINNLKNEDTATYFCARWVDYWGQGTTLTVSS
VL: DIKMTQSPSSMYASLGERVTITCKASQDIKSYLSWHQQKPWKSPKTLIYYATSLADGVPSRFSGSGSGQDYSLTISSLESDDTATYYCLQHGKSPYTFGGGTKLEIK
notes: also called mAb428.3C11; mAb428.3C11.H11.G3
Kd [1]: 6.97 nM | Kd [2]: 5 nM | Kd [3]: ~4.5 nM | Kd [4]: 2.03 nM
